Values of other authors, collected in PMC8979592.

Molecular target: clathrin (UniProt Q00610)

## clathrin (from UniProt Q00610)
  Kd: 120 µM
